Laboratory results: the supplement of paper PMC12855868

B1: library; numbered along this chain (parent)
chain: MAAAGGARLLRAASAVLGGPAGRWLHHAGSRAGSSGLLRNRGPGGSAEASRSLSVSARARSSSEDKITVHFINRDGETLTTKGKVGDSLLDVVVENNLDIDGFGACEGTLACSTCHLIFEDHIYEKLDAITDEENDMLDLAYGLTDRSRLGCQICLTKSMDNMTVRVPETVADARQSIDVGKTS

Variants of: B1
Assay: scaled log2 fold change in cell abundance, elesclomol vs control (0 = silent mean, 1 = nonsense mean) (scaled log2 ratio); higher = higher viability under elesclomol (loss of FDX1 cuproptosis function)
Details: glucose 10 mM
[1] = with ABC1 FDX1 KO, elesclomol 5 nM, 14 days
[2] = with HEK293T FDX1 KO, elesclomol 40 nM, 11 days
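Note: variant abundance is its share of total variant reads in each endpoint sample, from next-generation sequencing of the integrated ORF PCR-amplified out of genomic DNA.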

| Variant | scaled log2 fold change [1] | scaled log2 fold change [2] |
| --- | --- | --- |
| L117N | 1.04 | 0.559 |
| L117P | 1.02 | 1.03 |
| L117Q | 1.05 | 0.896 |
| L117R | 1.14 | 0.855 |
| L117S | 0.36 | -1.36 |
| L117T | 0.178 | 0.185 |
| L117V | 0.152 | 0.867 |
| L117W | 1.03 | 0.891 |
| L117Y | 1 | 1.02 |
| I118A | 0.0431 | -0.147 |
| I118C | -0.313 | -0.183 |
| I118D | 0.0488 | 0.0453 |
| I118E | -0.0205 | -0.0505 |
| I118F | -0.0055 | -0.412 |
| I118G | 0.403 | -0.108 |
| I118H | 0.249 | 0.918 |
| I118K | 0.00843 | 0.202 |
| I118L | 0.0425 | 0.108 |
| I118M | 0.0783 | 0.694 |
| I118N | 0.286 | -0.696 |
| I118P | 1.16 | 0.991 |
| I118Q | 0.0897 | 0.252 |
| I118R | -0.527 | -0.461 |
| I118S | 0.159 | -0.594 |
| I118T | -0.289 | 0.934 |

| Variant | scaled log2 fold change [1] | scaled log2 fold change [2] |
| --- | --- | --- |
| I118V | -0.103 | -0.548 |
| I118W | 0.135 | 0.474 |
| I118Y | 0.0377 | -0.427 |
| F119A | 0.901 | 0.518 |
| F119C | 0.133 | 0.831 |
| F119D | 1.06 | 1.02 |
| F119E | 1.04 | 1.21 |
| F119G | 1.05 | 0.397 |
| F119H | 0.658 | -0.0181 |
| F119I | 0.0519 | -0.0254 |
| F119K | 1.05 | 1.21 |
| F119L | 0.0116 | – |
| F119M | 0.178 | 0.132 |
| F119N | 0.967 | 0.538 |
| F119P | 0.974 | 0.628 |
| F119Q | 0.852 | 0.755 |
| F119R | 1.09 | 0.953 |
| F119S | 1.07 | 0.993 |
| F119T | 0.311 | 0.547 |
| F119V | -0.0745 | 1.48 |
| F119W | 0.0722 | -0.0842 |
| F119Y | 0.389 | 0.17 |
| E120A | 0.194 | -0.0676 |
| E120C | 0.227 | -0.059 |
| E120D | 0.203 | 0.978 |

| Variant | scaled log2 fold change [1] | scaled log2 fold change [2] |
| --- | --- | --- |
| E120F | 0.141 | -0.0751 |
| E120G | 0.367 | -0.0815 |
| E120H | -0.0176 | -0.794 |
| E120I | -0.276 | 0.524 |
| E120K | 0.0347 | 0.542 |
| E120L | 0.202 | 0.102 |
| E120M | -0.223 | 0.0763 |
| E120N | 0.109 | 0.835 |
| E120P | 0.108 | 0.193 |
| E120Q | -0.192 | 0.816 |
| E120R | 0.278 | -0.473 |
| E120S | 0.0771 | -1.62 |
| E120T | 0.0538 | -0.0827 |
| E120V | 0.256 | -0.849 |
| E120W | 0.298 | -0.149 |
| E120Y | 0.267 | -0.449 |
| D121A | -0.0978 | 0.0802 |
| D121C | -0.164 | -0.257 |
| D121E | 0.304 | -0.162 |
| D121F | 0.353 | – |
| D121G | 0.178 | -0.427 |
| D121H | -0.394 | -0.25 |
| D121I | 0.217 | – |
| D121L | -0.202 | -0.00537 |
| D121M | -0.556 | 1.79 |

| Variant | scaled log2 fold change [1] | scaled log2 fold change [2] |
| --- | --- | --- |
| D121N | -0.0427 | – |
| D121P | -0.198 | – |
| D121Q | 0.169 | 0.0204 |
| D121R | -0.0191 | 1.32 |
| D121S | -0.507 | – |
| D121T | -0.0111 | – |
| D121V | 0.222 | 0.458 |
| D121W | 0.324 | -0.123 |
| D121Y | -0.243 | 0.698 |
| H122C | -0.812 | – |
| H122D | -0.343 | – |
| H122E | 0.137 | – |
| H122F | -0.949 | – |
| H122G | -1.06 | – |
| H122I | 0.215 | 1.13 |
| H122K | -0.152 | -0.221 |
| H122L | -0.634 | – |
| H122M | 0.0412 | 0.368 |
| H122N | 0.564 | 0.129 |
| H122P | -0.0781 | -0.564 |
| H122Q | -0.0669 | 0.352 |
| H122R | -0.313 | 0.00681 |
| H122S | -0.554 | – |
| H122T | 0.191 | 0.139 |
| H122V | 0.297 | -0.437 |

| Variant | scaled log2 fold change [1] | scaled log2 fold change [2] |
| --- | --- | --- |
| H122W | 0.634 | -0.608 |
| H122Y | -0.259 | – |
| I123A | -0.0959 | -0.0656 |
| I123C | 0.148 | 0.505 |
| I123D | 0.248 | 0.132 |
| I123E | 0.111 | -0.217 |
| I123F | -0.346 | 0.312 |
| I123G | 0.293 | – |
| I123H | 0.292 | -0.438 |
| I123K | 0.336 | 0.365 |
| I123L | -0.128 | -0.00641 |
| I123M | 0.264 | 0.00397 |
| I123N | -0.867 | -0.142 |
| I123P | 0.506 | -0.674 |
| I123Q | -0.0633 | -0.755 |
| I123R | -0.34 | 0.123 |
| I123S | 0.133 | 0.206 |
| I123T | 0.223 | 0.679 |
| I123V | -0.0405 | – |
| I123W | -0.0593 | -0.208 |
| I123Y | -0.0557 | -0.336 |
| Y124A | -0.0589 | – |
| Y124C | 0.198 | -0.0461 |
